Laboratory results taken from patent publication US20180195056.

What was measured:
[1] = target: His14-xlGATE16-MBP
[2] = target: His14-xlLC3B-MBP

Protein | salt sensitivity of substrate cleavage (500 nM protease, 1 h, 0° C.) [1] | substrate excess cleaved to near completion within 1 h at 25° C. [1] | cleavage efficiency at limiting substrate concentration (constant protease:substrate ratio 1:1000, 1 h, 0° C.) [2] | protease concentration sufficient to cleave 100 µM substrate within 1 h at 0° C. [2] | salt sensitivity of substrate cleavage (500 nM protease, 1 h, 0° C.) [2] | substrate excess cleaved to near completion within 1 h at 37° C. [2] | cleavage efficiency at limiting substrate concentration (constant protease:substrate ratio 1:2000, 1 h, 0° C.) [1] | percent of a 6600-fold substrate excess cleaved in 1 h at 37° C. [1] | protease concentration needed to cleave 100 µM substrate within 2 h at 0° C. [1] | protease required for substrate processing at 0° C., against the other protease fragments [1] | protease required for substrate processing at 25° C., against the other protease fragments [1] | temperature dependence of substrate cleavage [2] | time for efficient cleavage (>95%) at 500 nM protease, 0° C., against full-length or N-terminally truncated enzymes [2] | substrate cleavage (20 µM protease, 100 µM substrate, 3 h, 25° C.) [2] | temperature needed for near-complete cleavage of a 6600-fold substrate excess in 1 h [1]
xlAtg4B^25-384 (protein) PVWVLGRKYSALTEKEQLLNDITSRLWFTYRRNFQAIGGTGPTSDTGWGCMLRCGQMIFAQALICRHVGRDWRWDKQKPKGEYLNILTAFLDKKDSYYSIHQIAQMGVGEGKYIGQWYGPNTVAQVLRKLAVFDQWSSIAVHIAMDNTVVVDEIRRLCRAGSGESSDAGALSNGYTGDSDPSCAQWKPLVLLIPLRLGLSEINEAYIETLKHCFMVPQSLGVIGGRPNSAHYFIGYVGDELIYLDPHTTQLSVEPSDCSFIEDESFHCQHPPCRMHVSEIDPSIAVGFFCSSQEDFEDWCQHIKKLSLSGGALPMFEVVDQLPLHLSNPDVLNLTPDSSDADRLDRFFDSEDEEFEILSL | also full-length or N-terminally truncated xlAtg4B fragments showed a reduced cleavage activity at ≥1 M NaCl | near-complete cleavage of a 6600-fold substrate excess was reached for the two N-terminally shortened protease fragments already at 25 °C | full-length xlAtg4B and both N-terminally shortened fragments could cleave the xlLC3B substrate rather efficiently even at substrate concentrations as low as 3-10 µM | 1 µM of each protease fragment was sufficient to cleave 100 µM of substrate within 1 h | xlLC3B processing by full-length xlAtg4B or its N-terminally truncated fragments was remarkably insensitive towards NaCl concentrations up to 1.5 M | Within 1 h at 37° C., all three enzymes were able to cleave a >3000-fold excess of the xlLC3B substrate to near completion | – | – | – | – | – | – | – | – | –
xlAtg4B^25-345 (protein) PVWVLGRKYSALTEKEQLLNDITSRLWFTYRRNFQAIGGTGPTSDTGWGCMLRCGQMIFAQALICRHVGRDWRWDKQKPKGEYLNILTAFLDKKDSYYSIHQIAQMGVGEGKYIGQWYGPNTVAQVLRKLAVFDQWSSIAVHIAMDNTVVVDEIRRLCRAGSGESSDAGALSNGYTGDSDPSCAQWKPLVLLIPLRLGLSEINEAYIETLKHCFMVPQSLGVIGGRPNSAHYFIGYVGDELIYLDPHTTQLSVEPSDCSFIEDESFHCQHPPCRMHVSEIDPSIAVGFFCSSQEDFEDWCQHIKKLSLSGGALPMFEVVDQ | The weak activity of xlAtg4B^25-345 on xlGATE16 was further reduced at salt concentrations ≥0.5 M | – | the C-terminally truncated protease showed significantly reduced cleavage already at 100-30 µM substrate concentration | 1 µM of each protease fragment was sufficient to cleave 100 µM of substrate within 1 h | Deletion of the protease's C-terminus, however, rendered the reaction salt sensitive at NaCl concentrations ≥0.5 M | – | Even more drastic effects were observed when cleaving xlGATE16-MBP with xlAtg4B^25-345 (FIG. 6A, right lower panel). Here, processing was poor even at 300 µM substrate concentration | could only cleave ≈30-4 0% of a 6600-fold substrate excess even at 37 °C | 500 nM of xlAtg4B^25-345 were insufficient to cleave 100 µM of xlGATE16 substrate within 2 h at 0 °C | ≈10-fold and ≈30-fold more xlAtg4B^25-345 was required for xlGATE16 processing as compared to the other protease fragments at 0 °C and 25° C., respectively | ≈10-fold and ≈30-fold more xlAtg4B^25-345 was required for xlGATE16 processing as compared to the other protease fragments at 0 °C and 25° C., respectively | The boost of xlLC3B substrate processing at higher temperatures, however, was much weaker for this protease fragment | efficient cleavage (i.e. >95% cleavage) of the xlLC3B substrate required twice as long when using xlAtg4B^25-345 instead of the full-length or just N-terminally truncated xlAtg4B enzymes | – | –
xlAtg4B^14-384 (protein) ADTPDFPETAEPVWVLGRKYSALTEKEQLLNDITSRLWFTYRRNFQAIGGTGPTSDTGWGCMLRCGQMIFAQALICRHVGRDWRWDKQKPKGEYLNILTAFLDKKDSYYSIHQIAQMGVGEGKYIGQWYGPNTVAQVLRKLAVFDQWSSIAVHIAMDNTVVVDEIRRLCRAGSGESSDAGALSNGYTGDSDPSCAQWKPLVLLIPLRLGLSEINEAYIETLKHCFMVPQSLGVIGGRPNSAHYFIGYVGDELIYLDPHTTQLSVEPSDCSFIEDESFHCQHPPCRMHVSEIDPSIAVGFFCSSQEDFEDWCQHIKKLSLSGGALPMFEVVDQLPLHLSNPDVLNLTPDSSDADRLDRFFDSEDEEFEILSL | also full-length or N-terminally truncated xlAtg4B fragments showed a reduced cleavage activity at ≥1 M NaCl | near-complete cleavage of a 6600-fold substrate excess was reached for the two N-terminally shortened protease fragments already at 25 °C | full-length xlAtg4B and both N-terminally shortened fragments could cleave the xlLC3B substrate rather efficiently even at substrate concentrations as low as 3-10 µM | 1 µM of each protease fragment was sufficient to cleave 100 µM of substrate within 1 h | xlLC3B processing by full-length xlAtg4B or its N-terminally truncated fragments was remarkably insensitive towards NaCl concentrations up to 1.5 M | Within 1 h at 37° C., all three enzymes were able to cleave a >3000-fold excess of the xlLC3B substrate to near completion | – | – | – | – | – | – | – | xlLC3B was nearly exclusively recognized by xlAtg4B^14-384 | –
full-length xlAtg4B (Xenopus laevis Atg4B, residues 1-384) (protein) MDAATLTYDTLRFADTPDFPETAEPVWVLGRKYSALTEKEQLLNDITSRLWFTYRRNFQAIGGTGPTSDTGWGCMLRCGQMIFAQALICRHVGRDWRWDKQKPKGEYLNILTAFLDKKDSYYSIHQIAQMGVGEGKYIGQWYGPNTVAQVLRKLAVFDQWSSIAVHIAMDNTVVVDEIRRLCRAGSGESSDAGALSNGYTGDSDPSCAQWKPLVLLIPLRLGLSEINEAYIETLKHCFMVPQSLGVIGGRPNSAHYFIGYVGDELIYLDPHTTQLSVEPSDCSFIEDESFHCQHPPCRMHVSEIDPSIAVGFFCSSQEDFEDWCQHIKKLSLSGGALPMFEVVDQLPLHLSNPDVLNLTPDSSDADRLDRFFDSEDEEFEILSL | also full-length or N-terminally truncated xlAtg4B fragments showed a reduced cleavage activity at ≥1 M NaCl | – | full-length xlAtg4B and both N-terminally shortened fragments could cleave the xlLC3B substrate rather efficiently even at substrate concentrations as low as 3-10 µM | 1 µM of each protease fragment was sufficient to cleave 100 µM of substrate within 1 h | xlLC3B processing by full-length xlAtg4B or its N-terminally truncated fragments was remarkably insensitive towards NaCl concentrations up to 1.5 M | Within 1 h at 37° C., all three enzymes were able to cleave a >3000-fold excess of the xlLC3B substrate to near completion | – | – | – | – | – | – | – | – | the full-length enzyme required 37 °C for a similarly efficient cleavage
